The values that follow come from patent US20150050211A1 (UNIVERSITY OF SOUTHERN CALIFORNIA, published 2015).

What all share (experiment): cell-based or functional assay
For assay [1], the target named is Her-2 (Human epithelial growth factor 2) on SKBR-3 cells (human) (UniProt P04626).
Assay [2] deals with T1, Her-2 (Human epithelial growth factor 2) on SKBR-3 cells (human, UniProt P04626 23-1255).
The target in assay [3] is T1, Her-2 (Human epithelial growth factor …). This is another data set of the same source.

AHNP (peptide) registered an IC50, inhibition of proliferation of Her-2 positive cells (SKBR-3), BrdU incorporation in assay [1] of 67000 nM.

B1: Peptide D (peptide)
peptide: MVCVVLYDDK
modifications: not fully specified; N-methyl norvaline at positions 4 and 5 (position 2 is Val, per paragraph 127); cyclized from the lysine side chain to the N-terminus
On to B1, for which the “IC50, inhibition of proliferation of Her-2 positive cells (SKBR-3), BrdU incorporation” value in assay [2] is 640 nM. Further, the “fold enhancement of EC50 over ANHP, BrdU cell proliferation assay” value in assay [3] was about 110 fold.

B2: Peptide 1 (peptide)
peptide: MAVYVHYHK
modifications: not fully specified; V is N-methyl norvaline (positions 3 and 5); cyclized from the lysine side chain to the N-terminus
As for B2, the “IC50, inhibition of proliferation of Her-2 positive cells (SKBR-3), BrdU incorporation” value in assay [2] turned out to be 520 nM. In assay [3], the “fold improvement of EC50 over HRAP, BrdU cell proliferation assay” value is about 450 fold.
